Measurements as given in article PMC8605023 (Nature Communications, 2021).

T1: G3BP2 NTF2 domain (human, UniProt Q9UN86 11-133)
T1 sequence (looked up): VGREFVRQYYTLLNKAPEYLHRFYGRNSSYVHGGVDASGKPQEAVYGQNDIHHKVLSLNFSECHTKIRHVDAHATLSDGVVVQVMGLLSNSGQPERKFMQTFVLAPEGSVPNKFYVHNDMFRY

B1: NSP3 peptide 2019-2034 (Sars-CoV2) (peptide)
peptide: VETSNSFDVLKSEDAQY
B2: NSP3 peptide 956-971 (Sars-CoV2) (peptide)
peptide: QGKPLEFGATSAALQY

Columns and labels:
Conditions in all cases: both partners purified
Ezrin FERM domain = Ezrin FERM domain (human, UniProt P15311 2-296)
Sequence of Ezrin FERM domain (P15311 2-296): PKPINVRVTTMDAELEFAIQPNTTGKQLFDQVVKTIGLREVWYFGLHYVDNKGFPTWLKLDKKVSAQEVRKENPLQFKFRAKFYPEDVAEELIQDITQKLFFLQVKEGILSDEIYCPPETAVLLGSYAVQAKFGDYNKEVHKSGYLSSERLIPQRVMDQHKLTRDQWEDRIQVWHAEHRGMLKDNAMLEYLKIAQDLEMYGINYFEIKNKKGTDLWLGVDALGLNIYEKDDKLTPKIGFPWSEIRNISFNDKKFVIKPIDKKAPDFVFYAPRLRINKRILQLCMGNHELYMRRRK

Radixin FERM domain = biological target: T2, Radixin FERM domain (human, UniProt P35241 5-295)
T2 construct: also called RDX
T2 sequence (P35241 5-295): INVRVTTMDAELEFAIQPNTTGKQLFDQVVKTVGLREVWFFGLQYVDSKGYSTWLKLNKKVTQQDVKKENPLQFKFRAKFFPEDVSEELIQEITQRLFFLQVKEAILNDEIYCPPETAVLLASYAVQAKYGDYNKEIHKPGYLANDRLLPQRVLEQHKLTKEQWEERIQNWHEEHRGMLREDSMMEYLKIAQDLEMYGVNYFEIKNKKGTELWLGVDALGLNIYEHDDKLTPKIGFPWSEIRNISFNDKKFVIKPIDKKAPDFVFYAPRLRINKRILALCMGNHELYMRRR

G3BP2 NTF2 domain = biological target: T1, G3BP2 NTF2 domain

Binder | IC50 (Ezrin FERM domain) [µM] | Ki (Ezrin FERM domain) [µM] | IC50 (Radixin FERM domain) [µM] | IC50 (G3BP2 NTF2 domain) [µM] | Ki (G3BP2 NTF2 domain) [µM]
B1 | 1530 | 37.6 | 1530 | – | –
B2 | – | – | – | 100 | 35
